# Laboratory results as given in US20130195866.
# Biological target: T1, NFATc4 (nuclear factor of activated T cells), endogenous in mouse cortical neurons (UniProt Q8K120)
# T1 sequence: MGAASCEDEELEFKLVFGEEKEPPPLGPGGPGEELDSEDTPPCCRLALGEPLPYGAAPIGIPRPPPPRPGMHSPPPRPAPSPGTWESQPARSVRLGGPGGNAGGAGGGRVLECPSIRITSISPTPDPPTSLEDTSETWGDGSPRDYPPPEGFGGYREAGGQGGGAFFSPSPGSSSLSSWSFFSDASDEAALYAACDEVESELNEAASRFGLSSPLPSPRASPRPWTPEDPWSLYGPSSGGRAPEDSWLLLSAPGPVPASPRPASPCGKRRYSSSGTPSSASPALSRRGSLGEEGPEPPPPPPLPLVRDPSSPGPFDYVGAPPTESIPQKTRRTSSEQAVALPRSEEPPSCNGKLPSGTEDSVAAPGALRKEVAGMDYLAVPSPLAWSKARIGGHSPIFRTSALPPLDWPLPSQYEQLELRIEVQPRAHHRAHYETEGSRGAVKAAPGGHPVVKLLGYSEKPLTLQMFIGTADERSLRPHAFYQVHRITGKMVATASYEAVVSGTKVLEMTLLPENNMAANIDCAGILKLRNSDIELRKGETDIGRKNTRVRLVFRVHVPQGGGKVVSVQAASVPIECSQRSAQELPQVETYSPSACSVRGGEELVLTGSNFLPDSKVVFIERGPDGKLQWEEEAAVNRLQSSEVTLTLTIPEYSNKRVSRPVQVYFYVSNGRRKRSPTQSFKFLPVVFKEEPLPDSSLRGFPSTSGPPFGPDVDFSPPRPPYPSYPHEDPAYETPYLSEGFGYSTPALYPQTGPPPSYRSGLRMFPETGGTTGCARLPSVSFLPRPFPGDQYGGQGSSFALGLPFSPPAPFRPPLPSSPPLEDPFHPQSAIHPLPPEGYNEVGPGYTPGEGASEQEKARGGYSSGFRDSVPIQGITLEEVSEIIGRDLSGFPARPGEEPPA
substance,measurement,value
"HA-tagged constitutively active calcineurin, CaNCA (mouse CaN amino acid residues 1-399, 45 kDa form)",NFATc4 nuclear distribution in neurons of injected mouse brain,CaNCA-expressing neurons showed high levels of NFATc4 nuclear distribution (data not shown)
